Assay results reported in article PMC3043148 (Biochemistry, 2011).
Positions count from the first letter of the chain named. Names may count otherwise. Like-named read-outs stand apart in the source and are kept apart here.

B1: human adenylosuccinate lyase (ASL), wild type, His-tag (enzyme)
chain: MAAGGDHGSPDSYRSPLASRYASPEMCFVFSDRYKFRTWRQLWLWLAEAEQTLGLPITDEQIQEMKSNLENIDFKMAAEEEKRLRHDVMAHVHTFGHCCPKAAGIIHLGATSCYVGDNTDLIILRNALDLLLPKLARVISRLADFAKERASLPTLGFTHFQPAQLTTVGKRCCLWIQDLCMDLQNLKRVRDDLRFRGVKGTTGTQASFLQLFEGDDHKVEQLDKMVTEKAGFKRAFIITGQTYTRKVDIEVLSVLASLGASVHKICTDIRLLANLKEMEEPFEKQQIGSSAMPYKRNPMRSERCCSLARHLMTLVMDPLQTASVQWFERTLDDSANRRICLAEAFLTADTILNTLQNISEGLVVYPKVIERRIRQELPFMATENIIMAMVKAGGSRQDCHEKIRVLSQQAASVVKQEGGDNDLIERIQVDAYFSPIHSQLDHLLDPSSFTGRASQQVQRFLEEEVYPLLKPYESVMKVKAE
B2: human adenylosuccinate lyase (ASL) R396C, His-tag (enzyme)
chain: B1 chain with R396C
B3: human adenylosuccinate lyase (ASL) R396H, His-tag (enzyme)
chain: B1 chain with R396H
B4: human adenylosuccinate lyase (ASL), wild type, non-His-tag (enzyme)
chain: B1 chain
B5: human adenylosuccinate lyase (ASL) L311V, His-tag (enzyme)
chain: B1 chain with L311V
B6: human adenylosuccinate lyase (ASL) R194C, His-tag (enzyme)
chain: B1 chain with R194C
B7: human adenylosuccinate lyase (ASL) R396H, non-His-tag (enzyme)
chain: B1 chain with R396H
B8: human adenylosuccinate lyase (ASL) R396C, non-His-tag (enzyme)
chain: B1 chain with R396C

Columns and labels:
AUC [1] = biological target: the molecule itself; assay: AUC
AUC [2] = biological target: the molecule itself; assay: AUC; remark: listed apart in the source
[3] = biological target: B1; assay: AUC
AUC [4] = biological target: the molecule itself; assay: AUC; remark: listed apart in the source
[5] = biological target: B1; assay: in vitro subunit hybridisation with separation on Ni-NTA
[6] = biological target: B1; assay: AUC; remark: listed apart in the source
[7] = biological target: B5; assay: AUC
AUC [8] = biological target: the molecule itself; assay: AUC; remark: listed apart in the source
[9] = biological target: B5; assay: AUC; remark: listed apart in the source
[10] = biological target: B5; assay: in vitro subunit hybridisation with separation on Ni-NTA
[11] = biological target: B6; assay: AUC
[12] = biological target: B6; assay: AUC; remark: listed apart in the source
[13] = biological target: B6; assay: in vitro subunit hybridisation with separation on Ni-NTA

Row | Binder | stoichiometry N (AUC [1]) | percent tetramer (M-Tet model) (AUC [2]) | percent tetramer (M-Tet model), pool 2 [3] | percent tetramer (M-Tet model), pool 3 [3] | subunit ratio (Non-His-tag: His-tag) by SDS-PAGE, pool 2 [5] | subunit ratio (Non-His-tag: His-tag) by SDS-PAGE, pool 3 [5] | also measured
1 | B1 | 4 | 77% | – | – | – | – | –
2 | B2 | 4 | 78% | – | – | – | – | –
3 | B3 | 4 | – | – | – | – | – | –
4 | B4 | – | – | 73% | 75% | 1.3 non-His-tag per His-tag subunit | 3.7 His-tag per non-His-tag subunit | percent tetramer (M-Tet model), pool 1 (AUC [4]): 68%
5 | B5 | 4 | 68% | – | – | – | – | –
6 | B6 | 4 | 73% | – | – | – | – | –
7 | B7 | – | – | 73% | 72% | 1.1 non-His-tag per His-tag subunit | 1.6 His-tag per non-His-tag subunit | stoichiometry N [6]: 4; stoichiometry N [7]: 4; stoichiometry N (AUC [8]): 4; percent tetramer (M-Tet model), pool 2 [9]: 74%; percent tetramer (M-Tet model), pool 3 [9]: 74%; subunit ratio (Non-His-tag: His-tag) by SDS-PAGE, pool 2 [10]: 1.8 non-His-tag per His-tag subunit; subunit ratio (Non-His-tag: His-tag) by SDS-PAGE, pool 3 [10]: 1 non-His-tag per His-tag subunit
8 | B8 | – | – | 72% | 70% | 1.2 non-His-tag per His-tag subunit | 2.3 His-tag per non-His-tag subunit | stoichiometry N [6]: 4; stoichiometry N [11]: 4; stoichiometry N (AUC [8]): 4; percent tetramer (M-Tet model), pool 2 [12]: 78%; percent tetramer (M-Tet model), pool 3 [12]: 80%; subunit ratio (Non-His-tag: His-tag) by SDS-PAGE, pool 2 [13]: 1.2 non-His-tag per His-tag subunit; subunit ratio (Non-His-tag: His-tag) by SDS-PAGE, pool 3 [13]: 3.2 His-tag per non-His-tag subunit
